Measured values: doi:10.1101/2025.08.16.670655, “A Phosphorelay Circuit Drives Extracellular Alkalinization in Plant Receptor Kinase Signaling” (bioRxiv, 2025)

Target: T1, His-BIK1 (Arabidopsis thaliana, UniProt O48814 1-395)
T1 construct: BIK1, Arabidopsis; CDS cloned into pET28a, 6xHis fusion; source: E. coli BL21 (DE3) Rosetta pLysS, purified (HisPur cobalt resin); not shown: His6, N-terminal, kept
T1 sequence (looked up): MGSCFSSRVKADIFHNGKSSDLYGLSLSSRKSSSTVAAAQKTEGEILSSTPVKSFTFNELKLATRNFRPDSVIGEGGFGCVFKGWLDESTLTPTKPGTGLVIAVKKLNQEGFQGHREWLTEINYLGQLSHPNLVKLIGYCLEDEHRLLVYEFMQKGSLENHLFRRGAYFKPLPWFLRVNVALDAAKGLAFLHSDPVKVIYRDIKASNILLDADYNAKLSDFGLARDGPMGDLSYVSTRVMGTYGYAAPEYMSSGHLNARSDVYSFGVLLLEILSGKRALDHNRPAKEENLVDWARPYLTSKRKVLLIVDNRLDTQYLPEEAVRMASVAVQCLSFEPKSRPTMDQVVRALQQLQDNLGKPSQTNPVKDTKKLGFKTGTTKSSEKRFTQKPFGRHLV
Experiment: pull-down; MBP pulldown of His-BIK1 by His-MBP fusion proteins; 25 mM Tris-HCl pH 7.4, 100 mM NaCl, 0.2 % Triton X-100, 1 mM DTT, 4 °C, 1-2 h
Settings: both partners purified

- binding result: binds
B1: His-MBP-GRF2 (natural protein, Arabidopsis thaliana, UniProt Q01525 1-259, looked up)
chain: MASGREEFVYMAKLAEQAERYEEMVEFMEKVSAAVDGDELTVEERNLLSVAYKNVIGARRASWRIISSIEQKEESRGNDDHVTAIREYRSKIETELSGICDGILKLLDSRLIPAAASGDSKVFYLKMKGDYHRYLAEFKTGQERKDAAEHTLAAYKSAQDIANAELAPTHPIRLGLALNFSVFYYEILNSPDRACNLAKQAFDEAIAELDTLGEESYKDSTLIMQLLRDNLTLWTSDMQDDAADEIKEAAAPKPTEEQQ
notes: GRF2, Arabidopsis; CDS cloned into pOPINM, 6xHis-MBP fusion; source: E. coli BL21 (DE3) Rosetta pLysS, purified (HisPur cobalt resin); not shown: His6, N-terminal, kept; MBP, N-terminal, kept
